Test system: SnaBI restriction endonuclease (R.SnaBI) (Sphaerotilus natans)
Experiment: cleavage_in_vitro
Conditions: crude extract, 37 C, 15 min and 1 h; about 8x10^6

T7 phage DNA (SnaBI substrate) showed an activity (units/g wet cells) of 8e+06.
